Measurements from publication PMC7247563, “Glycosylation Tunes Neuroserpin Physiological and Pathological Properties” (International Journal of Molecular Sciences, 2020).

Molecular target: the molecule itself
Experiment: SEC; 63.8 uM NS or gNS in 10 mM Tris-HCl pH 8.0, 50 mM KCl, incubated at 45 °C; aliquots at different times run on a Superdex 200 Increase 10/300 GL column; heat-induced polymerisation

B1: bacterially expressed human neuroserpin (non-glycosylated) (natural protein, UniProt Q99574 17-410, looked up)
chain: TGATFPEEAIADLSVNMYNRLRATGEDENILFSPLSIALAMGMMELGAQGSTQKEIRHSMGYDSLKNGEEFSFLKEFSNMVTAKESQYVMKIANSLFVQNGFHVNEEFLQMMKKYFNAAVNHVDFSQNVAVANYINKWVENNTNNLVKDLVSPRDFDAATYLALINAVYFKGNWKSQFRPENTRTFSFTKDDESEVQIPMMYQQGEFYYGEFSDGSNEAGGIYQVLEIPYEGDEISMMLVLSRQEVPLATLEPLVKAQLVEEWANSVKKQKVEVYLPRFTVEQEIDLKDVLKALGITEIFIKDANLTGLSDNKEIFLSKAIHKSFLEVNEEGSEAAAVSGMIAISRMAVLYPQVIVDHPFFFLIRNRRTGTILFMGRVMHPETMNTSGHDFEEL
notes: human neuroserpin (NS), wild type, from the pQE81L plasmid carrying the human NS gene; theoretical mass of the construct 46,271 Da; Samples were a mix of native NS and NS cleaved at Arg362; also called NS; bacterially purified NS; source: E. coli BL21 Rosetta (DE3) pLysS, purified (HiTrap Chelating HP, Superdex200 gel filtration)
B1: binds.
